B1: THAP1; numbered along this chain (parent)
chain: MVQSCSAYGCKNRYDKDKPVSFHKFPLTRPSLCKEWEAAVRRKNFKPTKYSSICSEHFTPDCFKRECNNKLLKENAVPTIFLCTEPHDKKEDLLEPQEQLPPPPLPPPVSQVDAAIGLLMPPLQTPVNLSVFCDHNYTVEDTMHQRKRIHQLEQQVEKLRKKLKTAQQRCRRQERQLEKLKEVVHFQKEKDDVSERGYVILPNDYFEIVEVPA

The variants in this data set derive from B1. Briefly: THAP1 transcriptional activity (GFP+/GFP- enrichment relative to wild-type constructs) (ratio to WT); higher = more THAP1 activity (PSMB5 reporter activation). The note with it: with PSMB5 promoter-GFP reporter. As for the experimental part:
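Deep mutational scan of human THAP1. Site-saturation single amino acid variant library (residues 2-213) was expressed by lentivirus at MOI ~0.3 in THAP1-knockout HEK-293T cells carrying an endogenous PSMB5 promoter-GFP knock-in reporter. Five days post-transduction, BFP+ cells were FACS-sorted into GFP dim and GFP bright populations and variants were counted by Illumina sequencing. Activity is the GFP-bright/GFP-dim read fold change, mean of 2 replicates, divided by the mean fold change of wild-type (synonymous) constructs in the same screen pool; WT = 1.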
For the variant MVQSCSAYGCKNRYDKDKPVSFHKFPLTRPSLCKEWEAAVRRKNFKETKYSSICSEHFTPDCFKRECNNKLLKENAVPTIFLCTEPHDKKEDLLEPQEQLPPPPLPPPVSQVDAAIGLLMPPLQTPVNLSVFCDHNYTVEDTMHQRKRIHQLEQQVEKLRKKLKTAQQRCRRQERQLEKLKEVVHFQKEKDDVSERGYVILPNDYFEIVEVPA [P47E], the THAP1 transcriptional activity is 0.173.
Then MVQSCSAYGCKNRYDKDKPVSFHKFPLTRPSLCKEWEAAVRRKNFKPTKYSSICSEHFTPDCFKRECNNKLLKENAVPTIFLCTEPHDKKEDLLEPQEQLPPPPLPPPVSQVDAAIGLLMPPLQTPVNLSVFCDHNYTVEDTMDQRKRIHQLEQQVEKLRKKLKTAQQRCRRQERQLEKLKEVVHFQKEKDDVSERGYVILPNDYFEIVEVPA [H144D], with 0.747.
With MVQSCSAYGCKNRYDKDPPVSFHKFPLTRPSLCKEWEAAVRRKNFKPTKYSSICSEHFTPDCFKRECNNKLLKENAVPTIFLCTEPHDKKEDLLEPQEQLPPPPLPPPVSQVDAAIGLLMPPLQTPVNLSVFCDHNYTVEDTMHQRKRIHQLEQQVEKLRKKLKTAQQRCRRQERQLEKLKEVVHFQKEKDDVSERGYVILPNDYFEIVEVPA [K18P] the figure was 0.0831; with MVQSCSAYGCKNRYDKDKPVSFHKFPLTRPSLCKEWEAAVRRKNFKPTKYSSICSEHFTPDCFKRECNNKLLKENAVPTIFLCTEPHDKKEDLLEPQEQLPPPPLPPPVSQVDAAIGLLMPPLQTPVNLSVFFDHNYTVEDTMHQRKRIHQLEQQVEKLRKKLKTAQQRCRRQERQLEKLKEVVHFQKEKDDVSERGYVILPNDYFEIVEVPA [C133F], 0.613.
For the variant MVQSCSAYGCKNRYDKDKPVSFHKTPLTRPSLCKEWEAAVRRKNFKPTKYSSICSEHFTPDCFKRECNNKLLKENAVPTIFLCTEPHDKKEDLLEPQEQLPPPPLPPPVSQVDAAIGLLMPPLQTPVNLSVFCDHNYTVEDTMHQRKRIHQLEQQVEKLRKKLKTAQQRCRRQERQLEKLKEVVHFQKEKDDVSERGYVILPNDYFEIVEVPA [F25T], the THAP1 transcriptional activity worked out at 0.0714.
Then MVQSCSAYGCKNRYDKDKPVSFHKFPLTRPSLCKEWEAAVRRKNFKPTKYSSICSEHFTPDCFKRECNNKLLKENAVPTIFLCTEPHDKKEDLLEPQEQLPPPPLPPPVSQVDAAIGLLMPPLQTPVNLSVFCDHNYTVEDTMHQRKRIHQLEQQVEKLRKKLKTAQQRCRRQERQLEKLKEVVHFQKEKDDVSERGYVILPNDNFEIVEVPA [Y205N], with 0.989; and MVQSCSAYGCKNRYDKDKPVSFHKFPLTRPSLCKEWEAAVRRKNFKPTKYSSICSEHFTPDCFKRECNNKLLKENAVPTIFLCTEPHDKKEDLLEPQEQLPPPPLPPPVSQVDAAIGLLMPPLQTPVNLSVFCDHNYTVEDTMHQRKRIHQLEQQVEKLRKKLKTAQQRCRRQERQLEDLKEVVHFQKEKDDVSERGYVILPNDYFEIVEVPA [K179D], with 0.403.
With MVQSCSAYGCKNRYDKDKPVSFHKFPLTRPSLCKEWEAAVRRKNFKPTKYSSICSEHFTPDCFKRECNNKLLKENAVPTIFLCTEPHDKKEDLLEPQEQLPPPPLPPPVSQVDAAIGLLMPPLQTPVNLSVFCDHNYTVEDTMHQRKRIHQLEQQVEKLRKKLKTAQQRCRRQERQLEKLKAVVHFQKEKDDVSERGYVILPNDYFEIVEVPA [E182A], the THAP1 transcriptional activity came to 0.871.
With MVQSCSAYGCKNRYDKDKPVSFHKFPLTRPSLCKEWEAAVRRKNFKPTKYSSICSEHFTPDCFKRECNNKLLKENAVPTIFLCTEPHDKKEDLLEPQEHLPPPPLPPPVSQVDAAIGLLMPPLQTPVNLSVFCDHNYTVEDTMHQRKRIHQLEQQVEKLRKKLKTAQQRCRRQERQLEKLKEVVHFQKEKDDVSERGYVILPNDYFEIVEVPA [Q99H] the figure was 1.07.
Then MVQSCSAYGCKNRYDKDKPVSFHKFPLTRPSLCKEWEAAVRRKNFKPTKYSSICSEHFTPDCFKRECNNKLLKENAVPTIFLCTEPHDKKWDLLEPQEQLPPPPLPPPVSQVDAAIGLLMPPLQTPVNLSVFCDHNYTVEDTMHQRKRIHQLEQQVEKLRKKLKTAQQRCRRQERQLEKLKEVVHFQKEKDDVSERGYVILPNDYFEIVEVPA [E91W], with 0.619.
Then MVQSCSAYGCKNRYDKDKPVSFHKFPLTRPSLCKEWEAAVRRKNFKPTKYSSICSEHFTPDCFKRECNNKLLKENAVPTIFLCTEPHDKKEDLLEPQEQLPPPPLPPPVSQVDAAIGLLMPPLQTPVNLSVFCDHNYTREDTMHQRKRIHQLEQQVEKLRKKLKTAQQRCRRQERQLEKLKEVVHFQKEKDDVSERGYVILPNDYFEIVEVPA [V139R], with 0.938; and MVQSCSAYGCKNRYDKDKPVSFHKFPLTRPSLCKEWEAAVRRKNFKPTKYSSICSEHFTPDCFKRECNNKLLKENLVPTIFLCTEPHDKKEDLLEPQEQLPPPPLPPPVSQVDAAIGLLMPPLQTPVNLSVFCDHNYTVEDTMHQRKRIHQLEQQVEKLRKKLKTAQQRCRRQERQLEKLKEVVHFQKEKDDVSERGYVILPNDYFEIVEVPA [A76L], with 0.476; and MVQSCSAYGCKNRYDKDKPVSFHKFPLTRPSLCKEWEAAVRRKNFKPTKYSSICSEHFTPDCFKRECNNKLLKENAVPTIFLCTEPHDKKEDLLEPQEQLPPPPLPPPVSQVDAAIGLLMPPLQTPVNLSVFCDHNYTVEDTMHQRKRIHQLEQQVEKLRKKLKTAKQRCRRQERQLEKLKEVVHFQKEKDDVSERGYVILPNDYFEIVEVPA [Q167K], with 0.613.
As for MVQSCSAYGCKNRYDKDKPVSFHKFPLTHPSLCKEWEAAVRRKNFKPTKYSSICSEHFTPDCFKRECNNKLLKENAVPTIFLCTEPHDKKEDLLEPQEQLPPPPLPPPVSQVDAAIGLLMPPLQTPVNLSVFCDHNYTVEDTMHQRKRIHQLEQQVEKLRKKLKTAQQRCRRQERQLEKLKEVVHFQKEKDDVSERGYVILPNDYFEIVEVPA [R29H], the THAP1 transcriptional activity was found to be 0.211.

(Values after the supplement of paper PMC11811203.)
